According to patent US20120329986A1 (UNIVERSITE DE MONTREAL, published 2012):
Square brackets hold non-standard residues; d marks the D form. Ends that are not written are not given here. dTrp(2-Me) = Cc1[nH]c2ccccc2c1C[C@@H](N)C(=O)O; HAIC = not defined here

Biological target: CD36 receptor (in the src-kinase cellular assay)
Assay: cell-based or functional assay

In the case of [HAIC][dTrp(2-Me)][dK]W[dF]K-NH2 (reading uncertain) [EP80317], the “SRC-kinase cellular assay EC50” value is reported as 26 nM.
